Assay results reported in patent publication US10800847.

Assays:
[1] = molecular target: HLA-B*2705 (B27) single antigen on Luminex beads (human); assay: Luminex single antigen, iBeads (#6), IVIg 1:4
[2] = molecular target: HLA-B*2708 (B27) single antigen on Luminex beads (human); assay: Luminex single antigen, iBeads (#6), IVIg 1:4
[3] = molecular target: HLA-B*3501 (B35) single antigen on Luminex beads (human); assay: Luminex single antigen, iBeads (#6), IVIg 1:4
[4] = molecular target: HLA-B*3701 (B37) single antigen on Luminex beads (human); assay: Luminex single antigen, iBeads (#6), IVIg 1:4
[5] = molecular target: HLA-B*3801 (B38) single antigen on Luminex beads (human); assay: Luminex single antigen, iBeads (#6), IVIg 1:4
[6] = molecular target: HLA-B*3901 (B39) single antigen on Luminex beads (human); assay: Luminex single antigen, iBeads (#6), IVIg 1:4
[7] = molecular target: HLA-B*4001 (B60) single antigen on Luminex beads (human); assay: Luminex single antigen, iBeads (#6), IVIg 1:4
[8] = molecular target: HLA-B*4002 (B61) single antigen on Luminex beads (human); assay: Luminex single antigen, iBeads (#6), IVIg 1:4
[9] = molecular target: HLA-B*4006 (B61) single antigen on Luminex beads (human); assay: Luminex single antigen, iBeads (#6), IVIg 1:4
[10] = molecular target: HLA-B*4101 (B41) single antigen on Luminex beads (human); assay: Luminex single antigen, iBeads (#6), IVIg 1:4
[11] = molecular target: HLA-B*4201 (B42) single antigen on Luminex beads (human); assay: Luminex single antigen, iBeads (#6), IVIg 1:4
[12] = molecular target: HLA-B*4402 (B44) single antigen on Luminex beads (human); assay: Luminex single antigen, iBeads (#6), IVIg 1:4
[13] = molecular target: HLA-B*4403 (B44) single antigen on Luminex beads (human); assay: Luminex single antigen, iBeads (#6), IVIg 1:4
[14] = molecular target: HLA-B*4501 (B45) single antigen on Luminex beads (human); assay: Luminex single antigen, iBeads (#6), IVIg 1:4
[15] = molecular target: HLA-B*4601 (B46) single antigen on Luminex beads (human); assay: Luminex single antigen, iBeads (#6), IVIg 1:4
[16] = molecular target: HLA-B*4701 (B47) single antigen on Luminex beads (human); assay: Luminex single antigen, iBeads (#6), IVIg 1:4
[17] = molecular target: Albumin on negative control beads (serum albumin, HSA/BSA) (human or bovine); assay: Luminex, iBead MFI against regular bead MFI, 1:4
[18] = molecular target: HLA-B*2708 (B27) single antigen on Luminex beads (human); assay: Luminex single antigen, regular beads (#7), IVIg 1:4
[19] = molecular target: HLA-B*3501 (B35) single antigen on Luminex beads (human); assay: as above
[20] = molecular target: HLA-B*3701 (B37) single antigen on Luminex beads (human); assay: as above
[21] = molecular target: HLA-B*3801 (B38) single antigen on Luminex beads (human); assay: as above
[22] = molecular target: HLA-B*3901 (B39) single antigen on Luminex beads (human); assay: as above
[23] = molecular target: HLA-B*4001 (B60) single antigen on Luminex beads (human); assay: as above
[24] = molecular target: HLA-B*4006 (B61) single antigen on Luminex beads (human); assay: as above
[25] = molecular target: HLA-B*4101 (B41) single antigen on Luminex beads (human); assay: as above
[26] = molecular target: HLA-B*4201 (B42) single antigen on Luminex beads (human); assay: as above
[27] = molecular target: HLA-B*4402 (B44) single antigen on Luminex beads (human); assay: as above
[28] = molecular target: HLA-B*4403 (B44) single antigen on Luminex beads (human); assay: as above
[29] = molecular target: HLA-B*4501 (B45) single antigen on Luminex beads (human); assay: as above
[30] = molecular target: HLA-B*4601 (B46) single antigen on Luminex beads (human); assay: as above
[31] = molecular target: HLA-B*4701 (B47) single antigen on Luminex beads (human); assay: as above
[32] = molecular target: Albumin on negative control beads (serum albumin, HSA/BSA) (human or bovine); assay: Luminex single antigen beads, regular beads (#7), 1:4
[33] = molecular target: HLA-A*0301 (A3) on single antigen beads (human) (UniProt P04439); assay: as above
[34] = molecular target: HLA-B*2705 (B27) single antigen on Luminex beads (human); assay: Luminex single antigen, iBead vs regular bead, IVIg 1:4
[35] = molecular target: HLA-B*2708 (B27) single antigen on Luminex beads (human); assay: as above
[36] = molecular target: HLA-B*3501 (B35) single antigen on Luminex beads (human); assay: as above
[37] = molecular target: HLA-B*3701 (B37) single antigen on Luminex beads (human); assay: as above
[38] = molecular target: HLA-B*3801 (B38) single antigen on Luminex beads (human); assay: as above
[39] = molecular target: HLA-B*3901 (B39) single antigen on Luminex beads (human); assay: as above
[40] = molecular target: HLA-B*4001 (B60) single antigen on Luminex beads (human); assay: as above
[41] = molecular target: HLA-B*4002 (B61) single antigen on Luminex beads (human); assay: as above
[42] = molecular target: HLA-B*4006 (B61) single antigen on Luminex beads (human); assay: as above
[43] = molecular target: HLA-B*4101 (B41) single antigen on Luminex beads (human); assay: as above
[44] = molecular target: HLA-B*4402 (B44) single antigen on Luminex beads (human); assay: as above
[45] = molecular target: HLA-B*4403 (B44) single antigen on Luminex beads (human); assay: as above
[46] = molecular target: HLA-B*4601 (B46) single antigen on Luminex beads (human); assay: as above
[47] = molecular target: HLA-B*4701 (B47) single antigen on Luminex beads (human); assay: as above

Sandoglobulin (IVIg, Novartis, Basel, Switzerland) (antibody)
MFI [1]: 377 MFI | MFI [2]: 302 MFI | MFI [3]: 352 MFI | MFI [4]: 740 MFI | MFI [5]: 248 MFI | MFI [6]: 0 MFI | MFI [7]: 409 MFI | MFI [8]: 242 MFI | MFI [9]: 359 MFI | MFI [10]: 182 MFI | MFI [11]: 86 MFI | MFI [12]: 461 MFI | MFI [13]: 413 MFI | MFI [14]: 612 MFI | MFI [15]: 473 MFI | MFI [16]: 655 MFI | Difference % (iBead against regular bead) [17]: -44% | MFI [18]: 13 MFI | MFI [19]: 243 MFI | MFI [20]: 1100 MFI | MFI [21]: 254 MFI | MFI [22]: 0 MFI | MFI [23]: 237 MFI | MFI [24]: 765 MFI | MFI [25]: 32 MFI | MFI [26]: 0 MFI | MFI [27]: 683 MFI | MFI [28]: 284 MFI | MFI [29]: 272 MFI | MFI [30]: 537 MFI | MFI [31]: 355 MFI | MFI [32]: 1200 MFI | MFI [33]: 2 MFI | Difference % (iBead against regular bead MFI) [34]: 167% | Difference % (iBead against regular bead MFI) [35]: 2220% | Difference % (iBead against regular bead MFI) [36]: 45% | Difference % (iBead against regular bead MFI) [37]: -33% | Difference % (iBead against regular bead MFI) [38]: -2% | Difference % (iBead against regular bead MFI) [39]: 0% | Difference % (iBead against regular bead MFI) [40]: 73% | Difference % (iBead against regular bead MFI) [41]: 81% | Difference % (iBead against regular bead MFI) [42]: -53% | Difference % (iBead against regular bead MFI) [43]: 469% | Difference % (iBead against regular bead MFI) [44]: -33% | Difference % (iBead against regular bead MFI) [45]: 45% | Difference % (iBead against regular bead MFI) [46]: -12% | Difference % (iBead against regular bead MFI) [47]: 85%
